In the supplement of paper PMC10567573:

B1: KLHL12 (parent)
chain: REESLPNLLQYVRMPLLTPRYITD

Variants of: B1
Assay: protein stability index of a GFP-peptide fusion (GPS, HEK-293T) (PSI 1-6); higher = more stable
Conditions: c terminus: a fixed tail appended
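Note: lentivirally expressed fusions sorted by FACS into six bins by GFP to DsRed ratio, PSI derived from sequencing read proportions per bin multiplied by bin number.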

Row | Variant | protein stability index
1 | REESLPNLLQYVRMPLKTPRYITD [L17K] | 3.51
2 | REESLPNLLQYVRMPLATPRYITD [L17A] | 3.51
3 | REESLPNLLQYVRMPLTTPRYITD [L17T] | 2.54
4 | REESLPNLLQYVRMPLITPRYITD [L17I] | 2.54
5 | REESLPNLLQYVRMPLWTPRYITD [L17W] | 2.33
6 | REESLPNLLQYVRMPLFTPRYITD [L17F] | 2.16
7 | REESLPNLLQYVRMPLMTPRYITD [L17M] | 2.63
8 | REESLPNLLQYVRMPLPTPRYITD [L17P] | 2.54
9 | REESLPNLLQYVRMPLNTPRYITD [L17N] | 3.42
10 | REESLPNLLQYVRMPLRTPRYITD [L17R] | 3.48
11 | REESLPNLLQYVRMPLSTPRYITD [L17S] | 2.87
12 | REESLPNLLQYVRMPLDTPRYITD [L17D] | 3.43
13 | REESLPNLLQYVRMPLETPRYITD [L17E] | 3.45
14 | REESLPNLLQYVRMPLCTPRYITD [L17C] | 2.85
15 | REESLPNLLQYVRMPLHTPRYITD [L17H] | 2.83
16 | REESLPNLLQYVRMPLVTPRYITD [L17V] | 3.56
17 | REESLPNLLQYVRMPLYTPRYITD [L17Y] | 2.98
18 | REESLPNLLQYVRMPLQTPRYITD [L17Q] | 2.86
19 | REESLPNLLQYVRMPLGTPRYITD [L17G] | 2.77
20 | REESLPNLLQYVRVPLLTPRYITD [M14V] | 2.87
21 | REESLPNLLQYVRWPLLTPRYITD [M14W] | 2.13
22 | REESLPNLLQYVRYPLLTPRYITD [M14Y] | 2.58
23 | REESLPNLLQYVRMVLLTPRYITD [P15V] | 2.34
24 | REESLPNLLQYVRMYLLTPRYITD [P15Y] | 4.19

Row | Variant | protein stability index
25 | REESLPNLLQYVRMLLLTPRYITD [P15L] | 4.9
26 | REESLPNLLQYVRMGLLTPRYITD [P15G] | 3.67
27 | REESLPNLLQYVRMRLLTPRYITD [P15R] | 1.69
28 | REESLPNLLQYVRMWLLTPRYITD [P15W] | 2
29 | REESLPNLLQYVRMFLLTPRYITD [P15F] | 2.24
30 | REESLPNLLQYVRMQLLTPRYITD [P15Q] | 2.45
31 | REESLPNLLQYVRMELLTPRYITD [P15E] | 2.54
32 | REESLPNLLQYVRMMLLTPRYITD [P15M] | 2.48
33 | REESLPNLLQYVRMILLTPRYITD [P15I] | 3.9
34 | REESLPNLLQYVRMTLLTPRYITD [P15T] | 2.65
35 | REESLPNLLQYVRMALLTPRYITD [P15A] | 1.58
36 | REESLPNLLQYVRMHLLTPRYITD [P15H] | 2.65
37 | REESLPNLLQYVRMSLLTPRYITD [P15S] | 3.06
38 | REESLPNLLQYVRMDLLTPRYITD [P15D] | 2.01
39 | REESLPNLLQYVRMNLLTPRYITD [P15N] | 2.42
40 | REESLPNLLQYVRMKLLTPRYITD [P15K] | 1.57
41 | REESLPNLLQYVRMPLLTERYITD [P19E] | 3.03
42 | REESLPNLLQYVRMPLLTNRYITD [P19N] | 2.48
43 | REESLPNLLQYVRMPLLTHRYITD [P19H] | 1.47
44 | REESLPNLLQYVRMPLLTFRYITD [P19F] | 2.17
45 | REESLPNLLQYVRMPLLTCRYITD [P19C] | 2.28
46 | REESLPNLLQYVRMPLLTMRYITD [P19M] | 2.02
47 | REESLPNLLQYVRMPLLTIRYITD [P19I] | 2.12
48 | REESLPNLLQYVRMPLLTLRYITD [P19L] | 2.48

Row | Variant | protein stability index
49 | REESLPNLLQYVRMPLLTSRYITD [P19S] | 2.14
50 | REESLPNLLQYVRMPLLTRRYITD [P19R] | 2.39
51 | REESLPNLLQYVRMPLLTKRYITD [P19K] | 2.41
52 | REESLPNLLQYVRMPLLTDRYITD [P19D] | 2.9
53 | REESLPNLLQYVRMPLLTGRYITD [P19G] | 2.75
54 | REESLPNLLQYVRMPLLTTRYITD [P19T] | 2.46
55 | REESLPNLLQYVRMPLLTQRYITD [P19Q] | 2.18
56 | REESLPNLLQYVRMPLLTARYITD [P19A] | 2.74
57 | REESLPNLLQYVRMPLLIPRYITD [T18I] | 2.17
58 | REESLPNLLQYVRMPLLDPRYITD [T18D] | 2.38
59 | REESLPNLLQYVRMPLLAPRYITD [T18A] | 2.36
60 | REESLPNLLQYVRMPLLSPRYITD [T18S] | 2.27
61 | REESLPNLLQYVRMPLLNPRYITD [T18N] | 1.7
62 | REESLPNLLQYVRMPLLYPRYITD [T18Y] | 1.95
63 | REESLPNLLQYVRMPLLMPRYITD [T18M] | 1.81
64 | REESLPNLLQYVRMPLLCPRYITD [T18C] | 1.96
65 | REESLPNLLQYVRMPLLPPRYITD [T18P] | 2.29
66 | REESLPNLLQYVRMPLLEPRYITD [T18E] | 2.87
67 | REESLPNLLQYVRMPLLWPRYITD [T18W] | 1.55
68 | REESLPNLLQYVRMPLLRPRYITD [T18R] | 2.67
69 | REESLPNLLQYVRMPLLQPRYITD [T18Q] | 2.5
70 | REESLPNLLQYVRMPLLHPRYITD [T18H] | 2.52
71 | REESLPNLLQYVRMPLLKPRYITD [T18K] | 2.19
72 | REESLPNLLQYVRMPLLLPRYITD [T18L] | 2.42

Row | Variant | protein stability index
73 | REESLPNLLQYVRMPLLGPRYITD [T18G] | 3.92
74 | REESLPNLLQYVRMPLLVPRYITD [T18V] | 1.97
75 | REESLPNLLQYVRMPLLFPRYITD [T18F] | 2.46
76 | REESLPNLLQYVRMPELTPRYITD [L16E] | 3.04
77 | REESLPNLLQYVRMPILTPRYITD [L16I] | 2.45
78 | REESLPNLLQYVRMPSLTPRYITD [L16S] | 3.56
79 | REESLPNLLQYVRMPVLTPRYITD [L16V] | 3.03
80 | REESLPNLLQYVRMPGLTPRYITD [L16G] | 2.84
81 | REESLPNLLQYVRMPHLTPRYITD [L16H] | 3.18
82 | REESLPNLLQYVRMPMLTPRYITD [L16M] | 2.46
83 | REESLPNLLQYVRMPKLTPRYITD [L16K] | 2.93
84 | REESLPNLLQYVRMPPLTPRYITD [L16P] | 2.77
85 | REESLPNLLQYVRMPWLTPRYITD [L16W] | 1.6
86 | REESLPNLLQYVRMPRLTPRYITD [L16R] | 3.25
87 | REESLPNLLQYVRMPNLTPRYITD [L16N] | 2.77
88 | REESLPNLLQYVRMPALTPRYITD [L16A] | 2.56
89 | REESLPNLLQYVRMPDLTPRYITD [L16D] | 2.69
90 | REESLPNLLQYVRMPFLTPRYITD [L16F] | 2.27
91 | REESLPNLLQYVRMPQLTPRYITD [L16Q] | 3.12
92 | REESLPNLLQYVRMPCLTPRYITD [L16C] | 2.41
93 | REESLPNLLQYVRMPYLTPRYITD [L16Y] | 2.98
94 | REESLPNLLQYVRMPTLTPRYITD [L16T] | 2.75
